Test results published in the supplement of paper PMC10126150.
± gives the standard deviation of the averaged measurements.
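Further: ATP exposure 15 min at 22 °C before imaging.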

The sequences below were run on ATP (assay: switch fluorescence ratio, 500 uM ATP over buffer (Cy3 cluster intensity, sum of 5 cycles each) (fold (ratio)); higher = stronger signal-on switching upon ATP binding; sequences stand for … in TCGTCGGCAGCGTCAGATGTGTATAAGAGACAGTTTTTTTTTTTTTTTTTTTTTTTTT…TC). Conditions: aptamer strand: ATP DNA aptamer (quencher-CACCTGGGGGAGTATTGCGGAGGAAGG + anchor), 100 nM annealed; ATP concentration: 500 uM.
How it was run: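 Clusters carrying Cy3-labelled switching strands on a modified Illumina MiSeq flow-cell were annealed to 100 nM quencher-labelled ATP aptamer and imaged in selection buffer. They were imaged again after 15 min with 500 uM ATP at 22 °C, over five buffer/ATP cycles with NaOH stripping and re-annealing in between. For each cluster, the fluorescence ratio is the summed Cy3 intensity of the target cycles divided by that of the buffer cycles, averaged per switch-domain sequence. Clusters outside 100-1000 RFU were left out.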
Work on TGTAGGGGGG yielded a switch fluorescence ratio of 0.973 ± 0.034.
In the case of GGGCTCTAAA, the switch fluorescence ratio is reported as 1 ± 0.018.
TTGCACAATT gave a switch fluorescence ratio of 1.01 ± 0.057.
With AATTAGGGGT the switch fluorescence ratio was 1.01 ± 0.02.
TTTGCTGGTT gave a switch fluorescence ratio of 1.02 ± 0.071.
With ACGAGTTCAT the switch fluorescence ratio was 0.999 ± 0.017.
For TAGCTAATCC, the switch fluorescence ratio was 1.08 ± 0.015.
In the case of ATGAGTCTAA, the switch fluorescence ratio is reported as 0.992 ± 0.011.
TCAGTAGGGG was tested, and the switch fluorescence ratio was 0.978 ± 0.068.
GGCTACCTTG gave a switch fluorescence ratio of 1.047 ± 0.0038.
With TATTCGAAAT the switch fluorescence ratio was 1.02 ± 0.028.
In the case of ACTGGGTGAG, the switch fluorescence ratio is reported as 1.02 ± 0.023.
Sequence ATTTTTGAGC has a switch fluorescence ratio of 1.04 ± 0.048.
Work on AGAAGTTGGT yielded a switch fluorescence ratio of 1 ± 0.023.
In the case of GCAATTGTTT, the switch fluorescence ratio is reported as 1.02 ± 0.039.
For GGCCGGACAT, the switch fluorescence ratio was 0.9674 ± 0.0089.
For AAGTTGGGTT, the switch fluorescence ratio was 0.9633 ± 0.0079.
GCACAAGTTG gave a switch fluorescence ratio of 1.02 ± 0.019.
TAGGAGGTCC gave a switch fluorescence ratio of 0.96 ± 0.081.
In the case of AATGGGTTGG, the switch fluorescence ratio is reported as 0.9875 ± 0.0082.
AGTAACAGCC was tested, and the switch fluorescence ratio was 1.001 ± 0.0066.
With CGGATAATTT the switch fluorescence ratio was 1.01 ± 0.047.
CGTGTTTGTT showed a switch fluorescence ratio of 0.988 ± 0.022.
In the case of CTGAGGTAAT, the switch fluorescence ratio is reported as 1.94 ± 0.21.
With CTCAGTATTT the switch fluorescence ratio was 1.01 ± 0.018.
In the case of GATCCAGAAT, the switch fluorescence ratio is reported as 0.9977 ± 0.0074.
TTTTTGATGG showed a switch fluorescence ratio of 1.02 ± 0.037.
In the case of TTTTTTCT, the switch fluorescence ratio is reported as 0.987 ± 0.02.
With TAACATGTTC the switch fluorescence ratio was 0.995 ± 0.031.
With GGGGCCCTTG the switch fluorescence ratio was 0.97602 ± 9.7e-05.
With TTGGGACTTT the switch fluorescence ratio was 1.03 ± 0.022.
Sequence TCGCGAGGGG has a switch fluorescence ratio of 0.997 ± 0.025.
In the case of TCTTCACGTC, the switch fluorescence ratio is reported as 1.003 ± 0.0029.
Work on TATGGGGAAT yielded a switch fluorescence ratio of 1.03 ± 0.098.
Work on GCGGTCCCCG yielded a switch fluorescence ratio of 1.11 ± 0.031.
Work on TTTCTTTCGT yielded a switch fluorescence ratio of 1.12 ± 0.16.
Sequence TATTAAATTG has a switch fluorescence ratio of 0.9975 ± 0.0028.
GAGGTAAGTG showed a switch fluorescence ratio of 0.954 ± 0.024.
ACATCGGGAT gave a switch fluorescence ratio of 1.017 ± 0.0012.
TCGTAGACGT gave a switch fluorescence ratio of 1.01 ± 0.011.
For GCGAAGGCGT, the switch fluorescence ratio was 0.9709 ± 0.0033.
TTGAAAATGA gave a switch fluorescence ratio of 0.979 ± 0.016.
In the case of GGAATGCTTC, the switch fluorescence ratio is reported as 1.06 ± 0.041.
Work on ATCGGTTACC yielded a switch fluorescence ratio of 1.011 ± 0.0045.
In the case of GCCAGGGGGG, the switch fluorescence ratio is reported as 1.01 ± 0.029.
ACGGGAAAAG was tested, and the switch fluorescence ratio was 1.01 ± 0.035.
GCACGGGACT showed a switch fluorescence ratio of 1.184 ± 0.011.
For AAAATTAGGA, the switch fluorescence ratio was 1.02 ± 0.069.
In the case of GCCGCCCTGG, the switch fluorescence ratio is reported as 1.056 ± 0.0076.
Sequence TTAAAAGGG has a switch fluorescence ratio of 0.9979 ± 0.007.
For ATGAGGGTCT, the switch fluorescence ratio was 0.999 ± 0.044.
AGGGCACGGG gave a switch fluorescence ratio of 0.982 ± 0.023.
CAAATACGGT was tested, and the switch fluorescence ratio was 1.25 ± 0.25.
With CCGTGGGGGT the switch fluorescence ratio was 1.054 ± 0.0029.
CTTGTCCAGC was tested, and the switch fluorescence ratio was 1.04 ± 0.037.
With ACAGTAGTAG the switch fluorescence ratio was 1.07 ± 0.026.
AGTATATCTG showed a switch fluorescence ratio of 0.974 ± 0.02.
In the case of TTGGGTCCGA, the switch fluorescence ratio is reported as 1.01 ± 0.049.
With AAACATTATT the switch fluorescence ratio was 1 ± 0.063.
In the case of TTTTGTTTTT, the switch fluorescence ratio is reported as 1.08 ± 0.44.
ACGGTTTTAC was tested, and the switch fluorescence ratio was 1.12 ± 0.012.
Sequence GTGGATTAGA has a switch fluorescence ratio of 0.9767 ± 0.0056.
For TTATTTTGAC, the switch fluorescence ratio was 1 ± 0.023.
AGCGGTTTCC was tested, and the switch fluorescence ratio was 1.029 ± 0.0093.
For AATGTGCAGT, the switch fluorescence ratio was 0.9627 ± 0.0043.
Work on GATAAGGGGA yielded a switch fluorescence ratio of 1.03 ± 0.023.
CCGGGGGACA showed a switch fluorescence ratio of 1.1 ± 0.17.
For TGTTGTGGGG, the switch fluorescence ratio was 0.96 ± 0.025.
GGGTATGCAA gave a switch fluorescence ratio of 1.001 ± 0.0093.
With AACGATTTTG the switch fluorescence ratio was 1.03 ± 0.016.
ACGTCGCATG gave a switch fluorescence ratio of 1.09 ± 0.046.
AGTGGTTCGC showed a switch fluorescence ratio of 1.01 ± 0.024.
With TGCAGTGTGG the switch fluorescence ratio was 1.005 ± 0.0078.
For GCGTAAGGTG, the switch fluorescence ratio was 1.1 ± 0.084.
ACGGGTTCGC gave a switch fluorescence ratio of 0.988 ± 0.022.
In the case of ATACTTCATT, the switch fluorescence ratio is reported as 1.03 ± 0.032.
CGATGGCCCT was tested, and the switch fluorescence ratio was 1.03 ± 0.011.
CGTCCGGATG showed a switch fluorescence ratio of 1.19 ± 0.13.
Work on GGCAGTCGTA yielded a switch fluorescence ratio of 0.955 ± 0.081.
In the case of CGAAGTTGAC, the switch fluorescence ratio is reported as 1.63 ± 0.13.
In the case of TTTGTAGGGG, the switch fluorescence ratio is reported as 0.981 ± 0.016.
In the case of GTCATAGTGT, the switch fluorescence ratio is reported as 0.955 ± 0.037.
TCGTTTGTGG showed a switch fluorescence ratio of 1.04 ± 0.013.
Work on GTTCGTATTT yielded a switch fluorescence ratio of 0.997 ± 0.021.
Sequence TTTCATTGGC has a switch fluorescence ratio of 0.986 ± 0.028.
GTTTGTGGGG was tested, and the switch fluorescence ratio was 0.991 ± 0.021.
Work on GCAATGGGTG yielded a switch fluorescence ratio of 1.35 ± 0.027.
For GGGTCAGACG, the switch fluorescence ratio was 1.06 ± 0.086.
In the case of CTGAGATTTT, the switch fluorescence ratio is reported as 0.931 ± 0.018.
For TTGCATGTTT, the switch fluorescence ratio was 1.15 ± 0.3.
Work on GCGATCAGCT yielded a switch fluorescence ratio of 1.034 ± 0.0022.
With CTCGGAGGGA the switch fluorescence ratio was 0.985 ± 0.04.
TCTGATGGTG gave a switch fluorescence ratio of 1.06 ± 0.039.
For GGGGGATATA, the switch fluorescence ratio was 1.01 ± 0.021.
TGACGCAGGT showed a switch fluorescence ratio of 1.38 ± 0.04.
GCTGGTTTAG showed a switch fluorescence ratio of 1.006 ± 0.0039.
With GTAATAAAAT the switch fluorescence ratio was 0.971 ± 0.034.
With GAAAAGCCCC the switch fluorescence ratio was 1.09 ± 0.059.
CGAGGGTTGG gave a switch fluorescence ratio of 1.02 ± 0.018.
GAGCGCGATT was tested, and the switch fluorescence ratio was 1.03 ± 0.036.
